Experiments:
[1] = molecular target: T1, Recombinant human PD-1 extracellular domain (with an immunoglobulin Fc region or a His tag) (human, UniProt Q15116 25-170); test: ELISA, plate-coated recombinant PD-1 extracellular domain, HRP anti-human IgM detection
T1 construct: extracellular domain; Coated on ELISA plates; not shown: either an immunoglobulin Fc region or a His tag
Method: (§1) An enzyme-linked immunosorbent assay (ELISA) was performed to assess the binding of anti-PD-1 antibodies to human, cynomolgus monkey, or mouse PD-1. Recombinant proteins containing the extracellular domain of PD-1 together with either an immunoglobulin Fc region or a His tag were used to coat wells of standard 96 well ELISA plates by overnight incubation at 4° C. Unbound recombinant protein was removed, Pierce SUPERBLOCK™ T20 was added, and plates were incubated for 10 minutes at room temperature with shaking. Plates were washed with phosphate buffered saline-TWEEN-20 (PBST), and anti-PD-1 antibodies were added in phosphate buffered saline (PBS) with 1% bovine serum albumin (BSA) and incubated for one hour at room temperature with shaking. Plates were then washed in PBST and incubated with horse radish peroxidase (HRP)-conjugated secondary antibodies in F(ab′)2 directed to either human IgG or human IgM. After one hour, plates were washed again with PBST, signal was developed with SUPERSIGNAL™ ELISA Pico substrate, and an ENVISION® luminometer (PerkinElmer) was used to record signal. Data were analyzed with […] PRISM®.

[2] = molecular target: T2, Human PD-1 overexpressed on HEK293 cells (human, UniProt Q15116 25-288); test: flow cytometry on HEK293 cells overexpressing human PD-1, PE anti-human IgM detection
T2 construct: whole, on cells
Method: (§2) HEK293 cells were modified to overexpress human or mouse PD-1. Cells were expanded in puromycin-containing media to maintain selection, and aliquoted to 96 well V-bottom plates for antibody staining and flow cytometric analysis. Anti-PD-1 antibodies were added to cells in BD stain buffer with fetal bovine serum (BD Biosciences, cat. #554656) and incubated on ice for 20 minutes. Cells were then washed, and R-phycoerythrin (PE)-labeled anti-human IgG or anti-human IgM secondary antibodies were then added and incubated for an additional 20 minutes. Data were collected on a Beckman Coulter CYTOFLEX® cytometer and analyzed in FLOWJO™.

[3] = molecular target: T3, Recombinant mouse PD-1 extracellular domain (with an immunoglobulin Fc region or a His tag) (mouse, UniProt Q02242 25-169); test: ELISA, plate-coated recombinant PD-1 extracellular domain
T3 construct: extracellular domain; Coated on ELISA plates; not shown: either an immunoglobulin Fc region or a His tag
T3 sequence (looked up): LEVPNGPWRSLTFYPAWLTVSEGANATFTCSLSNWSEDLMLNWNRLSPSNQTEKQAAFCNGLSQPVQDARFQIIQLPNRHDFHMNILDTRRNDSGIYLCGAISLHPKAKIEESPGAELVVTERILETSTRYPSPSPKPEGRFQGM
Method: as §1

[4] = molecular target: T4, PD-1 on PD-1 reporter Jurkat cells (PATHHUNTER Checkpoint Signaling Assay) (UniProt Q15116 25-288); test: cell-based or functional assay
[5] = molecular target: T5, Mouse PD-1 overexpressed on HEK293 cells (mouse, UniProt Q02242 25-288); test: flow cytometry on HEK293 cells overexpressing mouse PD-1
T5 construct: whole, on cells
T5 sequence (looked up): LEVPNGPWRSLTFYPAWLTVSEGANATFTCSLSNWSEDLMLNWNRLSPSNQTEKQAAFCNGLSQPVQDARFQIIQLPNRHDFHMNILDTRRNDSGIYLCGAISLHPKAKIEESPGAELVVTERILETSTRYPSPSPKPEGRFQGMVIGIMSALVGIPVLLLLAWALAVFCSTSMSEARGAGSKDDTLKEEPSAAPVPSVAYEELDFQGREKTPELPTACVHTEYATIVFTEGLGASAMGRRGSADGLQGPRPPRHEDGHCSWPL
Method: as §2

[6] = molecular target: T4, PD-1 on PD-1 reporter Jurkat cells …; test: cell-based or functional assay; remark: listed apart in the source
[7] = molecular target: T4, PD-1 on PD-1 reporter Jurkat cells …; test: cell-based or functional assay; remark: listed apart in the source

T4 sequence (Q15116 25-288): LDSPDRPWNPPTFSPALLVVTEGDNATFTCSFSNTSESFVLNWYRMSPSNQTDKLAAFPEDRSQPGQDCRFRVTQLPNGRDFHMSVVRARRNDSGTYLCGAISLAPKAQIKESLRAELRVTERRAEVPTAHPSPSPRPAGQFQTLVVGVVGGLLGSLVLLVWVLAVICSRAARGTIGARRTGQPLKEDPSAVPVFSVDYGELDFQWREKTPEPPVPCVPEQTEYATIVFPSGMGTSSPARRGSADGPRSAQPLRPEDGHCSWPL
T2 sequence (Q15116 25-288): as above
T1 sequence (Q15116 25-170): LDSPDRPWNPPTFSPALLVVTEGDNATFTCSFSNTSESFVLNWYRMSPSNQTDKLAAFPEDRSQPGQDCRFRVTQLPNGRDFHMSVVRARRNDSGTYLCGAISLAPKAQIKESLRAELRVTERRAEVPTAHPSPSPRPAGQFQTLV

B1: Anti-PD-1 IgM #1 (antibody)
VH: EVQLQESGPGLVKPSQTLSLTCTVTGYSITSDYAWNWIRQPPGKKLEWMGYINYSGSTSYNPSLKSRVTISRDTSKNQFSLKLSSVTAADTAVYYCARWIGSSAWYFDVWGQGTLVTVS
VL: DVLMTQTPLSLSVTPGQPASISCRSGQNIVHSNGNTYLEWYLQKPGQSPKLLIYKVSNRFFGVPDRISGSGSGTDFTLKISRVEAEDVGVYFCFQGSHVPFTFGQGTKLEIK
chain: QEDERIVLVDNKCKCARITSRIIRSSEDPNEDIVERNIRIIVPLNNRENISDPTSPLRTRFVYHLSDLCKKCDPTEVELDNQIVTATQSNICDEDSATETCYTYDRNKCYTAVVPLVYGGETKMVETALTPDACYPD
notes: also called Antibody #1 (IgM format); pentameric IgM #1
EC50 [1]: 87 pM
EC50 [2]: 200 pM
binding result [3]: no binding
PD-1 Signaling EC50 (PATHHUNTER Checkpoint Signaling Assay, reporter Jurkat cells), IgM [4]: 14 pM
binding result [5]: no binding
PD-1 Signaling EC50 (second incubation at 4 C), IgM [6]: 31 pM
PD-1 Signaling EC50 (method of Example 8), IgM [7]: 57 pM

— patent US20230212293A1 (published 2023)
